Laboratory results as given in patent publication US20040005688A1 (University of California, published 2004).

Target: T1, GST-fusion protein containing the PDZ domain of Dsh (Drosophila, UniProt P51140 250-338)
T1 construct: One of the smaller segments of the DM region made as GST fusions; not shown: glutathione S-transferase (GST) from a GST expression vector
T1 chain: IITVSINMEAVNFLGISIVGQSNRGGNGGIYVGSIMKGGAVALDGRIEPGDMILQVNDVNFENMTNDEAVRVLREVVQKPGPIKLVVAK
Assay: GST pull-down with segments of the DM region; in vitro kinase assay
Protocol: Lysates in buffer A with PIC were incubated with anti-Dsh or anti-DAK antibodies for 2-4 hours at 4° C. The immune complexes were collected by incubation with protein-A beads for 2 hours at 4° C., followed by centrifugation. The immunoprecipitates were then washed three times for 5-10 minutes each with Buffer A and subjected to SDS-PAGE or in vitro kinase assay. For precipitation by GST fusion proteins containing various regions of Dsh, lysates in buffer A with PIC were incubated for 2-4 hours at 4° C. with fusion proteins immobilized on glutathione agarose beads, followed by brief centrifugation. The glutathione beads were then washed three time for 5-10 minutes each with Buffer A and subjected to in vitro kinase assay, as described below.
The DAK activity was determined by a solid phase in vitro kinase assay after being brought down by immunoprecipitation (IP) or GST precipitation. The washed protein A or glutathione beads were then washed once with kinase buffer (50 mM Tris (pH 7.6), 10 mM MgCl₂) for 5 minutes at 4° C. The kinase reactions were carried out at room temperature for 30 minutes in a reaction volume of 20 μl containing 5:1 washed IP or GST beads, 1 μl [γ-³²P] ATP (10 μCi at 5000 Ci/mmol, Amersham) and 14 μl kinase buffer. […] The membranes were exposed to X-ray films or quantitated as indicated. […]

B1: Dishevelled Associated Kinase (DAK), endogenous kinase activity from Drosophila embryo and Clone-8 cell lysates (enzyme)
chain: MSTAMRTTLQSVPEALPADSVSNGTASNVAAPAAPVSSATNAVPPLAAVSSTTATYATNSISTSSHSVKDQQQQQQQQQHDSANANIVSLPPTTTPVANTNTMMPIVTSSNSATSNSTAATPTPASGAAATGGVGSVSQGPATVSASAANTNHSHQHSHQHHHHVANNMTTDGARLSSNNSAVVASSAINHHHHHTPGSGVAPTVNKNVLSTHSAHPSAIKQRTSSAKGSPNMQMRSSAPMRWRATEEHIGKYKLIKTIGKGNFAKVKLAKHLPTGKEVAIKIIDKTQLNPGSLQKLFREVRIMKMLDHPNIVKLFQVIETEKTLYLIMEYASGGEVFDYLVLHGRMKEKEARVKFRQIVSAVQYCHQKRIIHRDLKAENLLLDSELNIKIADFGFSNEFTPGSKLDTFCGSPPYAAPELFQGKKYDGPEVDVWSLGVILYTLVSGSLPFDGSTLRELRERVLRGKYRIPFYMSTDCENLLRKFLVLNPAKRASLETIMGDKWMNMGFEEDELKPYIEPKADLADPKRIEALVAMGYNRSEIEASLSQVRYDDVFATYLLLGRKSTDPESDGSRSGSSLSLRNISGNDAGANAGSASVQSPTHRGVHRSISASSTKPSRRASSGAETLRVGPTNAAATVAAATGAVGAVNPSNNYNAAGSAADRASVGSNFKRQNTIDSATIKENTARLAAQNQRPASATQKMLTTADTTLNSPAKPRTATKYDPTNGNRTVSGTSGIIPRRSTTLYEKTSSTEKTNVIPAETKMASAVKSSRHFPRNVPSRSTFHSGQTRARNNTALEYSGTSGASGDSSHPGRMSFFSKLSSRFSKRPNQ
notes: Native activity from lysates, not a defined construct; also called Dishevelled associated kinase activity; Dsh associated kinase activity
binding result: no binding
